The results in this text go back to the supplement of paper PMC5998384.

Data set [1] relates to HeLa Kyoto. The data set can be described thus: solubility change mitosis vs G1/S (difference of NP-40 vs SDS log2 ratios) (log2 ratio difference); higher = more soluble in mitosis.
Data set [2] deals with HeLa Kyoto. Kind of data set: melting temperature (median over replicates), in situ; higher = more thermally stable.
Data set [3] concerns HeLa Kyoto. The data set can be described thus: solubility in G1/S (NP-40 vs SDS abundance) (log2 ratio); higher = more soluble. As to conditions: cell cycle stage: G1/S.
In data set [4] the test system is HeLa Kyoto. Kind of data set: thermal stability score vs G1/S (z-score of summed log2 fold changes over temperatures); higher = more thermally stable than in G1/S.
Where [5] appears, read: cell cycle stage: early G1 (4.5 h after nocodazole release).
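For melting temperature (median over replicates), in situ in this document: HeLa Kyoto cells synchronized by double thymidine or nocodazole block, proteins quantified by TMT10plex mass spectrometry, three independent biological replicates.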
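For solubility change mitosis vs G1/S (difference of NP-40 vs SDS log2 ratios) in this document: synchronized HeLa Kyoto cells (double thymidine block for G1/S, nocodazole release for mitosis), protein amounts in NP-40 versus SDS lysates quantified by mass spectrometry, three biological replicates.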
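For solubility in G1/S (NP-40 vs SDS abundance) in this document: HeLa Kyoto cells arrested at G1/S by double thymidine block, proteins quantified by TMT10plex mass spectrometry in mild NP-40 versus SDS extracts, three biological replicates.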
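For thermal stability score vs G1/S (z-score of summed log2 fold changes over temperatures) in this document: synchronized HeLa Kyoto cells, proteins quantified by TMT10plex mass spectrometry, three biological replicates, mitosis taken 0.5 h after nocodazole release, G1/S directly after double thymidine block.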

Regarding “MGTPRAQHPPPPQLLFLILLSCPWIQGLPLKEEEILPEPGSETPTVASEALAELLHGALLRRGPEMGYLPGSDRDPTLATPPAGQTLAVPSLPRATEPGTGPLTTAVTPNGVRGAGPTAPELLTPPPGTTAPPPPSPASPGPPLGPEGGEEETTTTIITTTTVTTTVTSPVLCNNNISEGEGYVESPDLGSPVSRTLGLLDCTYSIHVYPGYGIEIQVQTLNLSQEEELLVLAGGGSPGLAPRLLANSSMLGEGQVLRSPTNRLLLHFQSPRVPRGGGFRIHYQAYLLSCGFPPRPAHGDVSVTDLHPGGTATFHCDSGYQLQGEETLICLNGTRPSWNGETPSCMASCGGTIHNATLGRIVSPEPGGAVGPNLTCRWVIEAAEGRRLHLHFERVSLDEDNDRLMVRSGGSPLSPVIYDSDMDDVPERGLISDAQSLYVELLSETPANPLLLSLRFEAFEEDRCFAPFLAHGNVTTTDPEYRPGALATFSCLPGYALEPPGPPNAIECVDPTEPHWNDTEPACKAMCGGELSEPAGVVLSPDWPQSYSPGQDCVWGVHVQEEKRILLQVEILNVREGDMLTLFDGDGPSARVLAQLRGPQPRRRLLSSGPDLTLQFQAPPGPPNPGLGQGFVLHFKEVPRNDTCPELPPPEWGWRTASHGDLIRGTVLTYQCEPGYELLGSDILTCQWDLSWSAAPPACQKIMTCADPGEIANGHRTASDAGFPVGSHVQYRCLPGYSLEGAAMLTCYSRDTGTPKWSDRVPKCALKYEPCLNPGVPENGYQTLYKHHYQAGESLRFFCYEGFELIGEVTITCVPGHPSQWTSQPPLCKVTQTTDPSRQLEGGNLALAILLPLGLVIVLGSGVYIYYTKLQGKSLFGFSGSHSYSPITVESDFSNPLYEAGDTREYEVSI [SEZ6L2]”, the “solubility change mitosis (log2)” value in data set [1] amounted to 0.0248. In addition, the melting temperature in data set [2] (cell cycle stage: G1/S) amounted to 53.7 °C; in data set [2] (cell cycle stage: mitosis), 54.8 °C. The “solubility in G1/S (log2)” value in data set [3] is -0.174. In addition, the thermal stability score is -0.928 in data set [4] (setting [5]) and -1.52 in data set [4] (cell cycle stage: mitosis).
Regarding “MLRSCAARLRTLGALCLPPVGRRLPGSEPRPELRSFSSEEVILKDCSVPNPSWNKDLRLLFDQFMKKCEDGSWKRLPSYKRTPTEWIQDFKTHFLDPKLMKEEQMSQAQLFTRSFDDGLGFEYVMFYNDIEKRMVCLFQGGPYLEGPPGFIHGGAIATMIDATVGMCAMMAGGIVMTANLNINYKRPIPLCSVVMINSQLDKVEGRKFFVSCNVQSVDEKTLYSEATSLFIKLNPAKSLT [THEM4]”, the “solubility change mitosis (log2)” value in data set [1] was -0.0775. Moreover, the melting temperature turned out to be 54.7 °C in data set [2] (cell cycle stage: G1/S) and 56.2 °C in data set [2] (cell cycle stage: mitosis). Further, the “solubility in G1/S (log2)” value in data set [3] came to 0.0285. Besides, the thermal stability score in data set [4] (setting [5]) was 0.216; in data set [4] (cell cycle stage: mitosis) it was -1.16.
Take “MSSEEGKLFVGGLNFNTDEQALEDHFSSFGPISEVVVVKDRETQRSRGFGFITFTNPEHASVAMRAMNGESLDGRQIRVDHAGKSARGTRGGGFGAHGRGRSYSRGGGDQGYGSGRYYDSRPGGYGYGYGRSRDYNGRNQGGYDRYSGGNYRDNYDN [RBM3]”: the “solubility change mitosis (log2)” value in data set [1] was 0.436. The melting temperature in data set [2] (cell cycle stage: G1/S) was determined as 54.2 °C; in data set [2] (cell cycle stage: mitosis), 52.7 °C. Also, the “solubility in G1/S (log2)” value in data set [3] came to 0.11. For the same sequence, the results for the thermal stability score in data set [4] (setting [5]) and in data set [4] (cell cycle stage: mitosis) were -2.01 and -4.74, respectively.
“MAAPSGGVNCEEFAEFQELLKVMRTIDDRIVHELNTTVPTASFAGKIDASQTCKQLYESLMAAHASRDRVIKNCIAQTSAVVKNLREEREKNLDDLTLLKQLRKEQTKLKWMQSELNVEEVVNDRSWKVFNERCRIHFKPPKNE [CCDC58]”: in data set [1], the “solubility change mitosis (log2)” value is 0.251. Besides, the melting temperature in data set [2] (cell cycle stage: G1/S) came out at 53.3 °C; in data set [2] (cell cycle stage: mitosis), 52.6 °C. For the same sequence, in data set [3], the “solubility in G1/S (log2)” value came out at 0.6. Also, the thermal stability score is -0.935 in data set [4] (setting [5]) and -0.43 in data set [4] (cell cycle stage: mitosis).
In the case of “MNAGSDPVVIVSAARTIIGSFNGALAAVPVQDLGSTVIKEVLKRATVAPEDVSEVIFGHVLAAGCGQNPVRQASVGAGIPYSVPAWSCQMICGSGLKAVCLAVQSIGIGDSSIVVAGGMENMSKAPHLAYLRTGVKIGEMPLTDSILCDGLTDAFHNCHMGITAENVAKKWQVSREDQDKVAVLSQNRTENAQKAGHFDKEIVPVLVSTRKGLIEVKTDEFPRHGSNIEAMSKLKPYFLTDGTGTVTPANASGINDGAAAVVLMKKSEADKRGLTPLARIVSWSQVGVEPSIMGIGPIPAIKQAVTKAGWSLEDVDIFEINEAFAAVSAAIVKELGLNPEKVNIEGGAIALGHPLGASGCRILVTLLHTLERMGRSRGVAALCIGGGMGIAMCVQRE [ACAT2]”, the “solubility change mitosis (log2)” value in data set [1] was -0.0395. The melting temperature stood at 58.4 °C in data set [2] (cell cycle stage: G1/S) and 58.2 °C in data set [2] (cell cycle stage: mitosis). For the same sequence, the “solubility in G1/S (log2)” value in data set [3] came to 0.305. Further, the thermal stability score is -0.261 in data set [4] (setting [5]) and -1.17 in data set [4] (cell cycle stage: mitosis).
Consider “MAARRALHFVFKVGNRFQTARFYRDVLGMKVESCSVARLECSGAISAHCSDYTRITEDSFSKPYDGKWSKTMVGFGPEDDHFVAELTYNYGVGDYKLGNDFMGITLASSQAVSNARKLEWPLTEVAEGVFETEAPGGYKFYLQNRSLPQSDPVLKVTLAVSDLQKSLNYWCNLLGMKIYEKDEEKQRALLGYADNQCKLELQGVKGGVDHAAAFGRIAFSCPQKELPDLEDLMKRENQKILTPLVSLDTPGKATVQVVILADPDGHEICFVGDEAFRELSKMDPEGSKLLDDAMAADKSDEWFAKHNKPKASG [GLOD4]”, for which the “solubility change mitosis (log2)” value in data set [1] is -0.012. The melting temperature in data set [2] (cell cycle stage: G1/S) was found to be 50.8 °C; in data set [2] (cell cycle stage: mitosis) it was 50.9 °C. Moreover, the “solubility in G1/S (log2)” value in data set [3] is 0.42. Besides, the thermal stability score came out at 0.704 in data set [4] (setting [5]) and 0.532 in data set [4] (cell cycle stage: mitosis).
